# Laboratory results reported in paper PMC7782513, “Structural basis for nuclear import selectivity of pioneer transcription factor SOX2” (Nature Communications, 2021).
# T1: IMPα3 lacking the IMPβ-binding domain (residues 64-521) (human, UniProt O00629 64-521)
# T1 sequence (looked up): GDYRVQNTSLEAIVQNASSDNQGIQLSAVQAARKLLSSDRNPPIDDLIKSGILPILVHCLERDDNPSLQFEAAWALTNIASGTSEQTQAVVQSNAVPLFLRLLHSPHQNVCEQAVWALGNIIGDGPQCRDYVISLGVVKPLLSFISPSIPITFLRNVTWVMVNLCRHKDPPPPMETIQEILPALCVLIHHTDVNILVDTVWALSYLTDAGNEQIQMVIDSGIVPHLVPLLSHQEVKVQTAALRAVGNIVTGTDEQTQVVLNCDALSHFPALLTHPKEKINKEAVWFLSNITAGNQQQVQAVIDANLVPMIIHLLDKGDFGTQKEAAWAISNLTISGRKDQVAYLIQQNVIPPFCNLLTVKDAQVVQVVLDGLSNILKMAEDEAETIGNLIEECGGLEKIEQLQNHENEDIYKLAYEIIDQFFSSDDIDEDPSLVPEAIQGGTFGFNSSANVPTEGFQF
# What was measured:
# Conditions in all cases: both partners purified
# [1] = biological target: T1, IMPα3 lacking the IMPβ-binding domain …; experiment: pull-down; 10 µM His-tagged SOX2 or mutant immobilised on Ni-NTA resin, 20 µM IMPα in 300 µL; washed three times with 50 mM phosphate pH 8.0, 300 mM NaCl, 20 mM imidazole; eluted through TEV cleavage; SDS-PAGE
# [2] = biological target: T1, IMPα3 lacking the IMPβ-binding domain …; experiment: MST; labelled SOX2 at 50 nM (his-tag labelling kit RED-tris-NTA), unlabelled importins titrated; 20 mM HEPES, 150 mM NaCl, pH 8.0; 25 °C; single binding model
# [3] = biological target: IMPα1 lacking the IMPβ-binding domain (residues 70-529) (human, UniProt P52292 70-529); experiment: as above
# [4] = biological target: IMPα2 lacking the IMPβ-binding domain (residues 70-529) (UniProt P52293 70-529); experiment: as above
# [5] = biological target: IMPα5 lacking the IMPβ-binding domain (residues 73-538) (human, UniProt P52294 73-538); experiment: as above
# IMPα5 lacking the IMPβ-binding domain (residues 73-538), sequence (P52294 73-538): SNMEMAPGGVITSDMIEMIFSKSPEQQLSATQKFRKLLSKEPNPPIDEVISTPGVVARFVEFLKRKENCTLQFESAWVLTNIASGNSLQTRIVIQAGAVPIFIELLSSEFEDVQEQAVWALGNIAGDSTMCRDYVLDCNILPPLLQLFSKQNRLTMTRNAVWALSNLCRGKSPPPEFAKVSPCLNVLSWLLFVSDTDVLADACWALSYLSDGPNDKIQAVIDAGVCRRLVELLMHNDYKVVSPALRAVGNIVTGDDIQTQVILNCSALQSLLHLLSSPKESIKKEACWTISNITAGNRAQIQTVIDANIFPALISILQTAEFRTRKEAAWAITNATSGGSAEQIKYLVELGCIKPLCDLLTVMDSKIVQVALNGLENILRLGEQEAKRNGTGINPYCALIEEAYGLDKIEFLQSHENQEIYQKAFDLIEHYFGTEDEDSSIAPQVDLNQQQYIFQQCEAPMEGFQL
binding result [1],Binder,also measured
binds,"His-tagged SOX2 R57A (domain or fragment, SOX2 HMG domain, human, residues 39-127 of UniProtKB P48431, with R57A; source: E. coli, recombinant, purified; not shown: His6, N-terminal, kept) not shown",–
binds,"His-tagged SOX2 K117A (domain or fragment, SOX2 HMG domain, human, residues 39-127 of UniProtKB P48431, with K117A; source: E. coli, recombinant, purified; not shown: His6, N-terminal, kept) not shown",–
binds,"His-tagged SOX2 T116E (to mimic phosphorylation) (domain or fragment, SOX2 HMG domain, human, residues 39-127 of UniProtKB P48431, with T116E; source: E. coli, recombinant, purified; not shown: His6, N-terminal, kept) not shown",–
binds,"His-tagged SOX2 R56A (domain or fragment, SOX2 HMG domain, human, residues 39-127 of UniProtKB P48431, with R56A; source: E. coli, recombinant, purified; not shown: His6, N-terminal, kept) not shown",–
–,"His-tagged SOX2 HMG domain (residues 39-127), wild type (domain or fragment, SOX2 HMG domain, human, residues 39-127 of UniProtKB P48431; pET30a+ construct with a TEV site (ENLYFQS) between tag and SOX2; in MST the labelled SOX2 carries the RED-tris-NTA dye of the his-tag labelling kit; also called SOX2 WT; source: E. coli BL21 (DE3) pLysS, purified (HisTrap, SEC); not shown: His6, N-terminal, kept) not shown",Kd [2]: 102 nM; Kd [3]: 447 nM; Kd [4]: 283 nM; Kd [5]: 247 nM
binds,"His-tagged SOX2 K42A (domain or fragment, SOX2 HMG domain, human, residues 39-127 of UniProtKB P48431, with K42A; source: E. coli, recombinant, purified; not shown: His6, N-terminal, kept) not shown",–
binds,"His-tagged SOX2 R114A (domain or fragment, SOX2 HMG domain, human, residues 39-127 of UniProtKB P48431, with R114A; source: E. coli, recombinant, purified; not shown: His6, N-terminal, kept) not shown",–
binds,"His-tagged SOX2 R98A (domain or fragment, SOX2 HMG domain, human, residues 39-127 of UniProtKB P48431, with R98A; source: E. coli, recombinant, purified; not shown: His6, N-terminal, kept) not shown",–
binds,"His-tagged SOX2 R113A (domain or fragment, SOX2 HMG domain, human, residues 39-127 of UniProtKB P48431, with R113A; source: E. coli, recombinant, purified; not shown: His6, N-terminal, kept) not shown",–
binds,"His-tagged SOX2 R43A (domain or fragment, SOX2 HMG domain, human, residues 39-127 of UniProtKB P48431, with R43A; also called R43A-SOX2; source: E. coli, recombinant, purified; not shown: His6, N-terminal, kept) not shown",–
binds,"His-tagged SOX2 K115A (domain or fragment, SOX2 HMG domain, human, residues 39-127 of UniProtKB P48431, with K115A; source: E. coli, recombinant, purified; not shown: His6, N-terminal, kept) not shown",–
binds,"His-tagged SOX2 R40A (domain or fragment, SOX2 HMG domain, human, residues 39-127 of UniProtKB P48431, with R40A; source: E. coli, recombinant, purified; not shown: His6, N-terminal, kept) not shown",–
